Data from US7662384B2, “Use of anti-α5β1 antibodies to inhibit cancer cell proliferation” (Facet Biotech Corporation, priority 2004, dated 2010).

System: refractory solid tumors
Experiment: Phase I extension study: tumor response
Format: in vivo, human
Procedure: A two-part Phase I open-label study was carried to determine the effects of treatment with up to 6 dose levels, from 0.5 mg/kg to 15.0 mg/kg of M200 (volociximab) in 21 human patients with a variety of refractory solid tumor types. The total duration of treatment for the first part was 6 weeks with physical assessments through 45 days after the last dose.
Patient evaluations during the study included the following: • a. Screening (within 14 days of study entry) of: medical history and physical examination, ECOG performance status, routine chemistry panel, complete blood count (CBC) with differential and platelets, sensitive C-reactive protein (CRP), urinalysis with microscopic analysis (UA/micro), electrocardiogram (ECG), chest radiograph (CXR), disease-directed body CT or MRI, urine pregnancy test within 48 hours prior to dosing, and coagulation studies (prothrombin [PT] and partial thromboplastin time [PTT]), anti-M200 antibodies (i.e., to detect cross-reactive HAMA or HACA) for patients who previously received murine or chimeric antibodies, head CT for patients with tumors that commonly metastasize to brain or CNS, and, in some patients, a biopsy to evaluate tumor vessel vascularity. • b. On-study laboratory evaluations: routine chemistry panel, urate, serum amylase, CBC with differential and platelets, UA/micro. • c. Routine disease-directed radiographic imaging (e.g., CT scanning) before and after treatment with M200 was used to evaluate tumor response using uni-dimensional, RECIST criteria. Target lesions were selected on the basis of their size (lesions with the longest diameter (LD)) and their suitability for accurate repetitive measurements (either by imaging techniques or clinically). A sum of the LD for all target lesions was calculated and reported as the baseline sum LD. The baseline sum LD was used as reference by which to characterize the objective tumor response. The following response criteria for the target lesions was used to assess the best overall response. • Complete Response (CR): Disappearance of all target lesions confirmed by repeat imaging 25 to 28 days after CR first documented. • Partial Response (PR): At least a 30% decrease in the sum of LD of target lesions, taking as reference the baseline sum LD, confirmed by repeat imaging 25 to 28 days after PR first documented. • Stable Disease (SD): Neither sufficient shrinkage to qualify for PR nor sufficient increase to qualify for PD, taking as references the smallest sum LD. • Progressive Disease (PD): At least a 20% increase in the sum of LD of target lesions, taking as reference the smallest sum LD recorded since treatment started, or the appearance of one or more new lesions. • d. Blood drawn for serum PK measurements, immunogenicity assays (anti-M200 antibodies), vascular growth factors, and measurement of bound and unbound α5β1 on peripheral blood monocytes. • e. A 3-mm punch biopsy of superficial tumor metastasis was obtained and frozen after the last treatment with M200 from patients who consented (not required for enrollment) to the procedure. This biopsy specimen could be used evaluate tumor vessel vascularity following treatment with M200.
One of these patients with renal cell cancer (RCC) in the 15.0 mg/kg cohort achieved a partial response.

B1: M200: chimeric IgG4 anti-α5β1 antibody derived from IIA1; generic name volociximab (antibody, V domains shown)
VH: MAVLGLLLCLVTFPSCVLSQVQLKESGPGLVAPSQSLSITCTISGFSLTDYGVHWVRQPPGKGLEWLVVIWSDGSSTYNSALKSRMTIRKDNSKSQVFLIMNSLQTDDSAMYYCARHGTYYGMTTTGDALDYWGQGTSVTVSS
VL: MDFQVQIFSFLLISASVIMSRGQIVLTQSPAIMSASLGERVTMTCTASSSVSSNYLHWYQQKPGSAPNLWIYSTSNLASGVPARFSGSGSGTSYSLTISSMEAEDAATYYCHQYLRSPPTFGGGTKLEIKDMSVDMSV
modifications: chimeric antibody
notes: chimeric IgG4 anti-α5β1 antibody derived from IIA1; generic name volociximab
With B1 the “Best Response Outcome” value (2.5 mg/kg, 1 patient, NSCLC) was “SD (SD defined as stabilization for ≧16 weeks (112 days))”, the “Time to Progression” value (2.5 mg/kg, 1 patient, NSCLC, includes 43 days on dose escalation study) was 129 days and the “Best Response Outcome” value (5 mg/kg, 1 patient, HCC) was “SD (SD defined as stabilization for ≧16 weeks (112 days))”. For the same molecule, the “Time to Progression” value (5 mg/kg, 1 patient, HCC, includes 43 days on dose escalation study) was 122 days, the “Time to Progression” value (10 mg/kg, 1 patient, CRC, includes 43 days on dose escalation study) was 70 days and the “Best Response Outcome” value (10 mg/kg, 1 patient, PARO) was “SD (SD defined as stabilization for ≧16 weeks (112 days))”. The “Time to Progression” value (10 mg/kg, 1 patient, PARO, includes 43 days on dose escalation study) was 143 days, the “Best Response Outcome” value (15 mg/kg, 1 patient, MEL) was “SD (SD defined as stabilization for ≧16 weeks (112 days))” and the “Time to Progression (Days)” value (15 mg/kg, 1 patient, MEL, on study, includes 43 days on dose escalation study) was 172+ (on Study) Days. The “Time to Progression” value (15 mg/kg, 1 patient, RCC, includes 43 days on dose escalation study) was 214 days and the “patients exhibiting stable disease (SD) or better response” value (of the 6 patients in the extension study) was 5 patients.
